Literature values, collected in patent publication US12678516B2, “Immunostimulatory toll-like receptor agonist-nanoparticle for cancer immunotherapy” (The Board of Trustees of the Leland Stanford Junior …, priority 2021, dated 2026).

Legend:
[1] = not given; remark: listed apart in the source

For “Tremelimumab: fully humanized CTLA4 antibody”, the “toxicity with more frequent dosing” value (10 mg/kg monthly vs 15 mg/kg every 3 months, phase II) is listed as “doubled”, the “sustained plasma levels in patients with the majority of responses” value (at one month) is listed as over 30 µg/mL and the “doses at which objective responses were evident” value (single antibody infusion, doses 0.01 to 15 mg/kg) is listed as at least 3 mg/kg.
For “ipilimumab: fully humanized CTLA4 antibody”, the “grade Ill/IV enterocolitis, share of patients” value ([1]; 10 mg/kg) is given as ~ 15%, the “hepatitis (irAE)” value ([1]; CTLA-4 blockade, patients) is given as 5-10% and the “hypophysitis (irAE)” value ([1]; CTLA-4 blockade, patients) is given as 5%. The “leucopenia (irAE)” value ([1]; CTLA-4 blockade, patients) was under 2%, the “pancreatitis (irAE)” value ([1]; CTLA-4 blockade, patients) was under 2% and the “rash/pruritus (irAE)” value ([1]; CTLA-4 blockade, patients) was over 50%. The “uveitis (irAE)” value ([1]; CTLA-4 blockade, patients) was under 2%.
